Data published in patent US20250333514A1 (CDR LIFE, published 2025).
Numbering of substitutions follows the chain as printed. One block for each binder: values may come before it.

Target: T1, HLA-A*02:01/PRAME antigen (recombinant, … on HLA-A*02:01) (human, Complex biotinylated for SPR capture; site of biotin and any tag not stated, not in the letters.)
T1 construct: also called PRAME target; pMHC
Assay: SPR (Biacore 8K), biotinylated pMHC captured, Fab-scFv analyte, single-cycle kinetics, 1:1 fit
Description: Recombinantly produced hits in Fab-scFv format, as described in Example 4, were evaluated for their ability to bind HLA-A*02:01/PRAME antigen. Binding characterization was performed by surface plasmon resonance (SPR) using a Biacore™ 8k (Cytiva) device. Briefly, 3000 RU of Biotin CAPture reagent (Cytiva) was immobilized on a Series S Sensor Chip CAP (Cytiva) and the biotinylated ligand HLA-A*02:01/PRAME (SEQ ID NO: 68) was diluted in HPS-EP+ running buffer (TEKNOVA) and captured for 300 s at a flow rate of 2 μL/min at flow cell 2 resulting in a ligand capture level of >100 RU. Subsequently, at least three consecutive analyte injections were performed at suitable concentrations applying the single-cycle-kinetics mode at a flow rate of 30 μL/min with an association time of 90 s and the dissociation time set to >400 s. The chip surface was regenerated according to the manufacturer's instructions. After reference flow cell signal and blank injections subtraction, the data was fit to a 1:1 Langmuir binding model to determine the association rate constant kₐ and dissociation rate constant kd and calculate the equilibrium dissociation constant KD (kd/kₐ), also denoted as affinity, using the Biacore™ Insight Evaluation software.

Kd: 1.5 nM
B1: M3286 (bispecific antibody)
heavy: EVQLVESGGGLVQPGGSLRLSCAASGFTFSTYAMNWVRQAPGKGLEWVGRIRSKYNNYATYYADSVKGRFTISRDDSKNTLYLQMNSLRAEDTAVYYCVRHGNFGDSYVSWFAYWGQGTLVTVSSASTKGPSVFPLAPSSKSTSGGTAALGCLVKDYFPEPVTVSWNSGALTSGVHTFPAVLQSSGLYSLSSVVTVPSSSLGTQTYICNVNHKPSNTKVDKKVEPKSCGGGGSDIQMTQSPSSLSASVGDRVTITCRSSQSVYNNLLGWYQQKPGKAPKLLIYSASTLASGVPSRFSGSGSGTDFTLTISSLQPEDSATYYCQGTYYTGDWYYPFGCGTKVEIKGGGGSGGGGSGGGGSGGGGSQVQLVESGGGSVQPGRSLRLSCAASGFTFSTYGVSWVRQAPGKCLEWIGYIDPVYGSTHYADSVKGRFTISRDNSKNTLYLQMNSLRAEDTASYYCARDLYAGSSGYYMIYSLWGQGTSVTVSS
light: QAVVTQEPSLTVSPGGTVTLTCGSSTGAVTTSNYANWVQQKPGKSPRGLIGGTNKRAPGVPARFSGSLLGGKAALTISGAQPEDEADYYCALWYSNHWVFGGGTKLTVLGQPKAAPSVTLFPPSSEELQANKATLVCLISDFYPGAVTVAWKADSSPVKAGVETTTPSKQSNNKYAASSYLSLTPEQWKSHRSYSCQVTHEGSTVEKTVAPTECS
notes: Humanized variant of M2638, monovalent Fab-scFv

Kd: 0.05 nM
B2: M3293 (bispecific antibody)
heavy: B1 heavy with L288R, T392D, A461V
light: B1 light
notes: as for B1
